# From IntAct's records for PubMed 19040637
# B1: Probable glutaredoxin slr1562 (Synechocystis sp. (strain PCC 6803 / Kazusa)), P74593 (parent)
# chain: MANLFNWLPLLSGRQADGIKAKVEIYTWQTCPFCIRAKLLLWWKGVKFIEYKIDGDDQARQAMAARAEGRRTVPQIFVNDQGIGGCDQLYGLDSRGQLDPLLATPPNPA
# partner: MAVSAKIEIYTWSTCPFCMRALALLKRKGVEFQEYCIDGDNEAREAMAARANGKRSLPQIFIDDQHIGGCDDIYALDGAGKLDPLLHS
# B2: Probable glutaredoxin ssr2061 (Synechocystis sp. (strain PCC 6803 / Kazusa)), P73492 (parent)
# chain: B1 partner
# partner: B1 chain
# Variants of: B1
# Conditions: with glrx2_syny3 glrx2, P73492
row,Variant,effect of a mutation on the interaction
1,C34S,disrupting interaction strength
2,C86S,disrupting interaction strength
3,C31S,decreasing interaction strength

# Variants of: B2
# Conditions: with glrx1_syny3 glrx1, P74593
row,Variant,effect of a mutation on the interaction
1,L22K,decreasing interaction strength
2,C36S,decreasing interaction strength
3,C18S,decreasing interaction strength
